Holding throughout (experiment): activation reporter or marker
The target in assay [1] is T1, PDS5Bp.L203V peptide on HLA-A*02:01 (human).
T1 peptide: LLDTVLVNV

The target in assay [2] is T2, PREPp.G384A peptide on HLA-B*35:01 (human).
T2 peptide: FPLDVGSIVAY

Assay [3] deals with T3, PPP5Cp.E428K peptide on HLA-A*24:02 (human).
T3 peptide: DYIIRSHKV

In assay [4] the target is T4, SVILp.E1748D peptide on HLA-A*02:01 (human).
T4 peptide: RQFDITSVSV

Assay [5] addresses T5, CEBPZp.S100F peptide on HLA-A*24:02 (human).
T5 peptide: KYTKAFLV

Assay [6] has as its target T6, STRADAp.M189V peptide on HLA-A*01:01 (human).
T6 peptide: ALDYIHHVGYV

For assay [7], the target named is T7, CLSTN1p.L289M peptide on HLA-B*35:01 (human).
T7 peptide: FPNIHMETC

The target in assay [8] is T8, MTHFRp.R238H peptide on HLA-B*40:01 (human).
T8 peptide: FEADTFFHFV

For assay [9], the target named is T9, ICKp.P591T peptide on HLA-B*39:01 (human).
T9 peptide: MRTHPGRPFF

Assay [10] has as its target T10, UGGT2p.L880V peptide on HLA-C*12:02 (human).
T10 peptide: FVGPLDEDF

Assay [11] has as its target T11, TENM4p.E1133D peptide on HLA-C*05:01 (human).
T11 peptide: LSDAFVSV

Assay [12] concerns the target T12, GPSM2p.D77A peptide on HLA-C*03:03 (human).
T12 peptide: YLHAYAKAL

In assay [13] the target is T13, ICKp.P591T peptide on HLA-C*12:02 (human).
T13 peptide: RTHPGRPFF

Assay [14] deals with T14, STRADAp.M189V peptide on HLA-C*07:01 (human).
T14 peptide: KALDYIHHV

Assay [15] addresses T15, VPS13Bp.G2602E peptide on HLA-A*02:01 (human).
T15 peptide: FVNLEQHVV

Assay [16] deals with T16, UAP1p.H469Y peptide on HLA-A*02:01 (human).
T16 peptide: ITADVNYNL

Assay [17] has as its target T17, CLSTN1p.L289M peptide on HLA-C*03:03 (human).
T17 peptide: LAVFPNIHM

Assay [18] deals with T18, GALNT2p.L14R peptide on HLA-B*35:01 (human).
T18 peptide: FAFRWVLGIAY

B1: TCR447 (TCR, V domains shown)
Valpha: EDQVTQSPEALRLQEGESSSLNCSYTVSGLRGLFWYRQDPGKGPEFLFTLYSAGEEKEKERLKATLTKKESFLHITAPKPEDSATYLCAVHHLNRDDKIIFGKGTRLHILP
Vbeta: DSGVTQTPKHLITATGQRVTLRCSPRSGDLSVYWYQQSLDQGLQFLIQYYNGEERAKGNILERFSAQQFPDLHSELNLSSLELGDSALYFCASSADLGTREQYFGPGTRLTVT
With B1, in assay [1], the binding result is recorded as “recognises”.

B2: TCR692 (TCR, V domains shown)
Valpha: GEDVEQSLFLSVREGDSSVINCTYTDSSSTYLYWYKQEPGAGLQLLTYIFSNMDMKQDQRLTVLLNKKDKHLSLRIADTQTGDSAIYFCAERNGGATNKLIFGTGTLLAVQP
Vbeta: DTEVTQTPKHLVMGMTNKKSLKCEQHMGHRAMYWYKQKAKKPPELMFVYSYEKLSINESVPSRFSPECPNSSLLNLHLHALQPEDSALYLCASSQDRTGAYSPLHFGNGTRLTVT
In the case of B2, in [2], the binding result was “recognises”.

B3: TCR536 (TCR, V domains shown)
Valpha: AQSVAQPEDQVNVAEGNPLTVKCTYSVSGNPYLFWYVQYPNRGLQFLLKYITGDNLVKGSYGFEAEFNKSQTSFHLKKPSALVSDSALYFCAVSPLTSGTYKYIFGTGTRLKVLA
Vbeta: SQTIHQWPATLVQPVGSPLSLECTVEGTSNPNLYWYRQAAGRGLQLLFYSVGIGQISSEVPQNLSASRPQDRQFILSSKKLLLSDSGFYLCAWSEGDETQYFGPGTRLLVL
As to B3, in assay [3], the binding result was “recognises”.

B4: TCR441 (TCR, V domains shown)
Valpha: ILNVEQSPQSLHVQEGDSTNFTCSFPSSNFYALHWYRWETAKSPEALFVMTLNGDEKKKGRISATLNTKEGYSYLYIKGSQPEDSATYLCAPSKYNNNDMRFGAGTRLTVKP
Vbeta: DAGITQSPRHKVTETGTPVTLRCHQTENHRYMYWYRQDPGHGLRLIHYSYGVKDTDKGEVSDGYSVSRSKTEDFLLTLESATSSQTSVYFCAISGTEDGELFFGEGSRLTVL
Turning to B4, in assay [4], the binding result is reported as “recognises”.

B5: TCR445 (TCR, V domains shown)
Valpha: AQTVTQSQPEMSVQEAETVTLSCTYDTSESDYYLFWYKQPPSRQMILVIRQEAYKQQNATENRFSVNFQKAAKSFSLKISDSQLGDAAMYFCASSRWGGSEKLVFGKGTKLTVNP
Vbeta: DSGVTQTPKHLITATGQRVTLRCSPRSGDLSVYWYQQSLDQGLQFLIQYYNGEERAKGNILERFSAQQFPDLHSELNLSSLELGDSALYFCASSDSRTGGTDTQYFGPGTRLTVL
On to B5, for which the binding result in assay [5] is “recognises”.

B6: TCR829 (TCR, V domains shown)
Valpha: QKEVEQDPGPLSVPEGAIVSLNCTYSNSAFQYFMWYRQYSRKGPELLMYTYSSGNKEDGRFTAQVDKSSKYISLFIRDSQPSDSATYLCAMSPTYSGAGSYQLTFGKGTKLSVIP
Vbeta: GAVVSQHPSWVICKSGTSVKIECRSLDFQATTMFWYRQFPKQSLMLMATSNEGSKATYEQGVEKDKFLINHASLTLSTLTVTSAHPEDSSFYICSASLLGEGYEQYFGPGTRLTVT
For B6, in assay [6], the binding result is “recognises”.

B7: TCR691 (TCR, V domains shown)
Valpha: GQSLEQPSEVTAVEGAIVQINCTYQTSGFYGLSWYQQHDGGAPTFLSYNALDGLEETGRFSSFLSRSDSYGYLLLQELQMKDSASYFCAVQAGTALIFGKGTTLSVSS
Vbeta: DTEVTQTPKHLVMGMTNKKSLKCEQHMGHRAMYWYKQKAKKPPELMFVYSYEKLSINESVPSRFSPECPNSSLLNLHLHALQPEDSALYLCASSQPGGGNTEAFFGQGTRLTVV
Take B7: in assay [7], the binding result is listed as “recognises”.

B8: TCR814 (TCR, V domains shown)
Valpha: TQLLEQSPQFLSIQEGENLTVYCNSSSVFSSLQWYRQEPGEGPVLLVTVVTGGEVKKLKRLTFQFGDARKDSSLHITAAQPGDTGLYLCAGLLGDSGAGSYQLTFGKGTKLSVIP
Vbeta: DAGITQSPRHKVTETGTPVTLRCHQTENHRYMYWYRQDPGHGLRLIHYSYGVKDTDKGEVSDGYSVSRSKTEDFLLTLESATSSQTSVYFCAISESWMSSYNEQFFGPGTRLTVL
As to B8, in [8], the binding result was “recognises”.

B9: TCR687 (TCR, V domains shown)
Valpha: AQSVTQLGSHVSVSEGALVLLRCNYSSSVPPYLFWYVQYPNQGLQLLLKYTSAATLVKGINGFEAEFKKSETSFHLTKPSAHMSDAAEYFCAVTDSNYQLIWGAGTKLIIKP
Vbeta: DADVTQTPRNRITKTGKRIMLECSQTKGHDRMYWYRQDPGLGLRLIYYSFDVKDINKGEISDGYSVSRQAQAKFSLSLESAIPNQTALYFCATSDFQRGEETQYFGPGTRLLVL
Turning to B9, in assay [9], the binding result was “recognises”.

B10: TCR682 (TCR, V domains shown)
Valpha: AQSVTQPDIHITVSEGASLELRCNYSYGATPYLFWYVQSPGQGLQLLLKYFSGDTLVQGIKGFEAEFKRSQSSFNLRKPSVHWSDAAEYFCAVAPDNYGQNFVFGPGTRLSVLP
Vbeta: DAMVIQNPRYQVTQFGKPVTLSCSQTLNHNVMYWYQQKSSQAPKLLFHYYDKDFNNEADTPDNFQSRRPNTSFCFLDIRSPGLGDAAMYLCATYSSGANVLTFGAGSRLTVL
With B10, the binding result in assay [10] is listed as “recognises”.

B11: TCR707 (TCR, V domains shown)
Valpha: QKEVEQNSGPLSVPEGAIASLNCTYSDRGSQSFFWYRQYSGKSPELIMSIYSNGDKEDGRFTAQLNKASQYVSLLIRDSQPSDSATYLCAVNVFNKFYFGSGTKLNVKP
Vbeta: DAGVIQSPRHEVTEMGQEVTLRCKPISGHDYLFWYRQTMMRGLELLIYFNNNVPIDDSGMPEDRFSAKMPNASFSTLKIQPSEPRDSAVYFCASSFLITDTQYFGPGTRLTVL
As for B11, the binding result in assay [11] was “recognises”.

B12: TCR538 (TCR, V domains shown)
Valpha: ILNVEQSPQSLHVQEGDSTNFTCSFPSSNFYALHWYRWETAKSPEALFVMTLNGDEKKKGRISATLNTKEGYSYLYIKGSQPEDSATYLCAFDNYGQNFVFGPGTRLSVLP
Vbeta: DVKVTQSSRYLVKRTGEKVFLECVQDMDHENMFWYRQDPGLGLRLIYFSYDVKMKEKGDIPEGYSVSREKKERFSLILESASTNQTSMYLCASSLTGSFNEQFFGPGTRLTVL
For the molecule B12, in assay [12], the binding result is on record as “recognises”.

B13: TCR689 (TCR, V domains shown)
Valpha: GIQVEQSPPDLILQEGANSTLRCNFSDSVNNLQWFHQNPWGQLINLFYIPSGTKQNGRLSATTVATERYSLLYISSSQTTDSGVYFCAVVLSYNTDKLIFGTGTRLQVFP
Vbeta: DVKVTQSSRYLVKRTGEKVFLECVQDMDHENMFWYRQDPGLGLRLIYFSYDVKMKEKGDIPEGYSVSREKKERFSLILESASTNQTSMYLCASSLSPPGYLETQYFGPGTRLLVL
Take B13: the binding result in [13] is listed as “recognises”.

B14: TCR827 (TCR, V domains shown)
Valpha: GQQVMQIPQYQHVQEGEDFTTYCNSSTTLSNIQWYKQRPGGHPVFLIQLVKSGEVKKQKRLTFQFGEAKKNSSLHITATQTTDVGTYFCAAPDAGGTSYGKLTFGQGTILTVHP
Vbeta: NAGVTQTPKFQVLKTGQSMTLQCAQDMNHEYMSWYRQDPGMGLRLIHYSVGAGITDQGEVPNGYNVSRSTTEDFPLRLLSAAPSQTSVYFCASSPLNPYNEQFFGPGTRLTVL
Take B14: in assay [14], the binding result is on record as “recognises”.

B15: TCR535 (TCR, V domains shown)
Valpha: AQKVTQAQTEISVVEKEDVTLDCVYETRDTTYYLFWYKQPPSGELVFLIRRNSFDEQNEISGRYSWNFQKSTSSFNFTITASQVVDSAVYFCALSTSMDSNYQLIWGAGTKLIIKP
Vbeta: EPEVTQTPSHQVTQMGQEVILRCVPISNHLYFYWYRQILGQKVEFLVSFYNNEISEKSEIFDDQFSVERPDGSNFTLKIRSTKLEDSAMYFCASSCWDRSTDTQYFGPGTRLTVL
Regarding B15, in assay [15], the binding result is recorded as “recognises”.

B16: TCR798 (TCR, V domains shown)
Valpha: AQSVTQLDSQVPVFEEAPVELRCNYSSSVSVYLFWYVQYPNQGLQLLLKYLSGSTLVKGINGFEAEFNKSQTSFHLRKPSVHISDTAEYFCAVSYSGSARQLTFGSGTQLTVLP
Vbeta: DAGVIQSPRHEVTEMGQEVTLRCKPISGHNSLFWYRQTMMRGLELLIYFNNNVPIDDSGMPEDRFSAKMPNASFSTLKIQPSEPRDSAVYFCASNPGGRGEKLFFGSGTQLSVL
With B16, in [16], the binding result is “recognises”.

B17: TCR696 (TCR, V domains shown)
Valpha: AQSVTQLDSHVSVSEGTPVLLRCNYSSSYSPSLFWYVQHPNKGLQLLLKYTSAATLVKGINGFEAEFKKSETSFHLTKPSAHMSDAAEYFCVVSAPDTGRRALTFGSGTRLQVQP
Vbeta: GAGVSQSPSNKVTEKGKDVELRCDPISGHTALYWYRQSLGQGLEFLIYFQGNSAPDKSGLPSDRFSAERTGGSVSTLTIQRTQQEDSAVYLCASSSGQGFTDTQYFGPGTRLTVL
In the case of B17, the binding result in [17] is given as “recognises”.

B18: TCR802 (TCR, V domains shown)
Valpha: AQSVSQHNHHVILSEAASLELGCNYSYGGTVNLFWYVQYPGQHLQLLLKYFSGDPLVKGIKGFEAEFIKSKFSFNLRKPSVQWSDTAEYFCAVNLLTDSWGKFQFGAGTQVVVTP
Vbeta: EPEVTQTPSHQVTQMGQEVILRCVPISNHLYFYWYRQILGQKVEFLVSFYNNEISEKSEIFDDQFSVERPDGSNFTLKIRSTKLEDSAMYFCATMGSGGNEQFFGPGTRLTVL
For B18, the binding result in [18] was “recognises”.

The values are drawn from paper PMC9768791 (2022).
